The target of test [1] is T1, PKC-ζ (Homo sapiens, UniProt Q05513).
T1 construct: purchased Millipore
T1 sequence (Q05513 1-592): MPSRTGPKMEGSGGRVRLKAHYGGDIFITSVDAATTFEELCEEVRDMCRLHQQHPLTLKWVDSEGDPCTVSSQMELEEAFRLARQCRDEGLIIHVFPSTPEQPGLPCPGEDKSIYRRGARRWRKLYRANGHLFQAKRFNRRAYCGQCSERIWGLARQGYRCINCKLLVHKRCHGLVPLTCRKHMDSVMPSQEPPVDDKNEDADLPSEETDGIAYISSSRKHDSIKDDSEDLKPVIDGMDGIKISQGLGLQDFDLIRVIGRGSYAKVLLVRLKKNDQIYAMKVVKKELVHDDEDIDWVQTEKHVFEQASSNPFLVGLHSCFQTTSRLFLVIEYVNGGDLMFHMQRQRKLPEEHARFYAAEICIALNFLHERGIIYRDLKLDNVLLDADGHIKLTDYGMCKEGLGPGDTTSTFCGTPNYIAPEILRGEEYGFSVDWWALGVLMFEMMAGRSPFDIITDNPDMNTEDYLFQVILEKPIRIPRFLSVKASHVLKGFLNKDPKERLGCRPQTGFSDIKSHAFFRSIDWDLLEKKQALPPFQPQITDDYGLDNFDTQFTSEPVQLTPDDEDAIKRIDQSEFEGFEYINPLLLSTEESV
Kind of test: PKC-ζ kinase assay in vitro. Type of test: biochemical. To be noted: MBP substrate, higher concentrations required than for PKC-δ, FIG. 5D. The procedure: (§1) Measurement of PKC-β and PKC-ζ activities. Recombinant PKC-βII (Calbiochem) was assayed in vitro in 20 mM HEPES pH 7.2, 15 mM MgCl2, 0.2 mM CaCl2, 1 mM DTT, 25 mM β-glycerophosphate, 50 μg/ml phosphatidylserine and 5 μg/ml diacylglycerol, using 12.5 μM MBP as substrate, using 5 ng of enzyme per 50 μl reaction. 100 μM ATP (containing [γ^32P]-ATP (as above) was used to start the reaction, and incorporation was determined using p81 filter binding (Maines et al., “Human Biliverdin Reductase: A Previously Unknown Activator of Protein Kinase C-βII,” J. Biol. Chem. 282:8110-8122 (2007), which is hereby incorporated by reference in its entirety). Similarly, recombinant PKC-ζ(Millipore) was assayed in 20 mM MOPS pH 7.2, 15 mM MgCl2, 0.2 mM EDTA, with 12.5 μM MBP as substrate, again using 5 ng of enzyme per 50 μl reaction (Lerner-Marmarosh et al., “Regulation of TNF-alpha-Activated PKC-zeta Signaling By the Human Biliverdin Reductase: Identification of Activating and Inhibitory Domains of the Reductase,” FASEB J. 21:3949-3962 (2007), which is hereby incorporated by reference in its entirety). Otherwise, reaction conditions were as for PKC-βII.

The target of test [2] is T2, PKC-βII (Homo sapiens, UniProt P05771).
T2 construct: purchased Calbiochem
T2 sequence (P05771 1-673 isoform P05771-2): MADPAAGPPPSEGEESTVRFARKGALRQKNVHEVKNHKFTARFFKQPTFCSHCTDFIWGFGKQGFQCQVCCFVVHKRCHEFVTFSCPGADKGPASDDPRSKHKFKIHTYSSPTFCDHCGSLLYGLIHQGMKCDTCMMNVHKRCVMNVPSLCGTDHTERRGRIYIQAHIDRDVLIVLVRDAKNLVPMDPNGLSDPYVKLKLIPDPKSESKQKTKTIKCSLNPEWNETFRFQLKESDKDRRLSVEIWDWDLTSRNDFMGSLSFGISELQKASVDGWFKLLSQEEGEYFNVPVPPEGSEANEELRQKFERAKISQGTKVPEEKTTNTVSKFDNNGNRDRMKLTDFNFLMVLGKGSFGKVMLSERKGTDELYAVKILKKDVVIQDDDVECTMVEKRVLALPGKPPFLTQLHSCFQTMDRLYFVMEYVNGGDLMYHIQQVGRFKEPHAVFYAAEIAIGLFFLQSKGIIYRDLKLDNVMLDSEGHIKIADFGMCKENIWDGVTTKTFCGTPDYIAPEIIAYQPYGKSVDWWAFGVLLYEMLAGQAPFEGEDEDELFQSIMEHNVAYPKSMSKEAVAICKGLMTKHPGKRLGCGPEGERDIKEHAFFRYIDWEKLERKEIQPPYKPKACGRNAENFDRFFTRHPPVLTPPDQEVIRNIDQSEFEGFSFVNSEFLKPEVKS
Kind of test: PKC-βII kinase assay in vitro. It is filed as biochemical. To be noted: MBP substrate, concentrations that markedly inhibited PKC-δ, FIG. 5D. The protocol:
as §1

The values that follow come from patent publication US9598677B2, “Use of human biliverdin reductase and fragments thereof for the treatment of protein kinase C-delta and ERK related conditions” (University of Rochester, priority 2009, dated 2017).

Ends that are not written are not given here. * marks the point of attachment. Myristoyl = CCCCCCCCCCCCCC(=O)*

As to KRNRYLSF (Myristoyl-KRNRYLSF), the “effect of inhibitory peptide on PKC-ζ activity” value in test [1] was “responsive”. Moreover, in test [2], the “effect of inhibitory peptide on PKC-βII activity” value is recorded as “essentially unaffected”.
